Measured values: PMC3326326
Read-outs that look alike come from different tables or passages of the source.

Assays:
[1] = biological target: penta-His-tagged PfAlba3 (Plasmodium falciparum (3D7)); test: AUC
PfAlba4 [2] = biological target: T1, PfAlba4 (Plasmodium falciparum 3D7, UniProt A0A5K1K8Y8 1-372); test: competition
T1 sequence: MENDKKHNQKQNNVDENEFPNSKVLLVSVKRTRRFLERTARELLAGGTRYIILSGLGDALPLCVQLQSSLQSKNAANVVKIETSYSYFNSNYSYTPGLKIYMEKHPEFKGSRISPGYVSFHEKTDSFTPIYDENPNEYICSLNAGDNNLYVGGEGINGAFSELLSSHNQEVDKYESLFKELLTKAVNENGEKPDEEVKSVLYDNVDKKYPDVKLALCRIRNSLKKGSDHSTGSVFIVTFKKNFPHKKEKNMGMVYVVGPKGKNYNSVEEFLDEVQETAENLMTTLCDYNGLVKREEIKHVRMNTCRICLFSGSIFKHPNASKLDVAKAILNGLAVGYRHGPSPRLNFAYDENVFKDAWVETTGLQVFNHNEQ

PfAlba4 [3] = biological target: T1, PfAlba4; test: competition; remark: listed apart in the source
PfAlba2 [4] = biological target: T2, PfAlba2 (Plasmodium falciparum 3D7, UniProt Q8IDN4 1-211); test: EMSA
T2 sequence: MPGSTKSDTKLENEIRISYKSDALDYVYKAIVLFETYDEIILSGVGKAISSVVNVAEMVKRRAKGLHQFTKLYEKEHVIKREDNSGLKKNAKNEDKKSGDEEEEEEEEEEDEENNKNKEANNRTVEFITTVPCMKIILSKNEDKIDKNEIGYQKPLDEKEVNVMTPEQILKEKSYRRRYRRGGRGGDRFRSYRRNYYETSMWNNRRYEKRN

PfAlba4 [5] = biological target: T1, PfAlba4; test: EMSA
PfAlba3 [6] = biological target: T3, PfAlba3 (Plasmodium falciparum 3D7, UniProt Q8IJX8 1-107); test: EMSA
T3 sequence: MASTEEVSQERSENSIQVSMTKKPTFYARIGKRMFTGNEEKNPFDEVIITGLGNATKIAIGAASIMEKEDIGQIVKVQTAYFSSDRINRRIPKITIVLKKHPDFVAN

PfAlba1 = biological target: T4, PfAlba1 (Plasmodium falciparum 3D7, UniProt Q8IAX8 1-248); test: EMSA
T4 sequence: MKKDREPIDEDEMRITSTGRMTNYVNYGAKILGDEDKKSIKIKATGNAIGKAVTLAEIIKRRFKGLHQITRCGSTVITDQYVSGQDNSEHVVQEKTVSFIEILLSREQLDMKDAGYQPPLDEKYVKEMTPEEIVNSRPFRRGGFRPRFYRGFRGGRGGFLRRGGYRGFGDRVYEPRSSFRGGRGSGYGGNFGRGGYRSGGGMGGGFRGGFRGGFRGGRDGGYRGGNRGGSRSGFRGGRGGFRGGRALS

PfAlba2 [7] = biological target: T2, PfAlba2; test: EMSA; remark: listed apart in the source
PfAlba4 [8] = biological target: T1, PfAlba4; test: EMSA; remark: listed apart in the source
PfAlba4 [9] = biological target: T1, PfAlba4; test: competition; remark: listed apart in the source
PfAlba2 [10] = biological target: T2, PfAlba2; test: EMSA; remark: listed apart in the source
PfAlba3 [11] = biological target: T3, PfAlba3; test: EMSA; remark: listed apart in the source

Which stoichiometry N [1] does the source give for “penta-His-tagged PfAlba3 (natural protein)” here?
The stoichiometry N was 2.

B1: Scr F1 (dsDNA)
DNA 1: GTACTTACTCTAATCTAGTCGTAGTATGTATGCCTCAATGAA
DNA 2: TTCATTGAGGCATACATACTACGACTAGATTAGAGTAAGTAC
Does B1 bind (PfAlba4 [2])?
Result: binds

B2: HSP70 (dsDNA)
DNA 1: GCTAGTGCAAAAGGTTCAAAACCAAATTTACCAGAATCCAAT
DNA 2: ATTGGATTCTGGTAAATTTGGTTTTGAACCTTTTGCACTAGC
Does B2 bind (PfAlba4 [2])?
Result: binds

B3: Actin-II (dsDNA)
DNA 1: TCTGAAGAAGCTGTTGCTTTAGTAGTTGATAATGGAAGTGGT
DNA 2: ACCACTTCCATTATCAACTACTAAAGCAACAGCTTCTTCAGA
Does B3 bind (PfAlba4 [2])?
Result: binds

B4: TARE6 fragment 42 bp (F1) (dsDNA)
DNA 1: CCCAAGCTTACTTATATTAGGACCTATATTAGTTATCTGAGG
DNA 2: CCTCAGATAACTAATATAGGTCCTAATATAAGTAAGCTTGGG
Does B4 bind (PfAlba4 [3])?
Result: binds

B5: polyA 22-mer (ssRNA)
RNA: AAAAAAAAAAAAAAAAAAAAAA
Does B5 bind (PfAlba2 [4])?
Result: binds

Does B5 bind (PfAlba4 [5])?
Result: binds

Does B5 bind (PfAlba3 [6])?
Result: binds

Does B5 bind (PfAlba1)?
Result: binds

B6: polyU 22-mer (ssRNA)
RNA: UUUUUUUUUUUUUUUUUUUUUU
Does B6 bind (PfAlba2 [7])?
Result: binds

Does B6 bind (PfAlba4 [8])?
Result: binds

B7: polyA 22-mer, unlabeled (ssRNA)
RNA: AAAAAAAAAAAAAAAAAAAAAA
Does B7 bind (PfAlba4 [9])?
Result: binds

B8: TARE6 (79 bp) (dsDNA)
DNA 1: CCCAAGCTTACTTATATTAGGACCTATATTAGTTATCTGAGGACCTATATTACTTATTTTAGGACCTATATTGAATTCC
DNA 2: GGAATTCAATATAGGTCCTAAAATAAGTAATATAGGTCCTCAGATAACTAATATAGGTCCTAATATAAGTAAGCTTGGG
Does B8 bind (PfAlba2 [10])?
Result: binds

Does B8 bind (PfAlba3 [11])?
Result: binds
